The target in the test is human wild-type 5-HT1AR with C-terminal ARMS2-PK2 (5-HT1AR-ARMS2-PK2) (human) (UniProt P08908). Description: split reporter.
Sequence of UniProt P08908 (P08908 whole entry): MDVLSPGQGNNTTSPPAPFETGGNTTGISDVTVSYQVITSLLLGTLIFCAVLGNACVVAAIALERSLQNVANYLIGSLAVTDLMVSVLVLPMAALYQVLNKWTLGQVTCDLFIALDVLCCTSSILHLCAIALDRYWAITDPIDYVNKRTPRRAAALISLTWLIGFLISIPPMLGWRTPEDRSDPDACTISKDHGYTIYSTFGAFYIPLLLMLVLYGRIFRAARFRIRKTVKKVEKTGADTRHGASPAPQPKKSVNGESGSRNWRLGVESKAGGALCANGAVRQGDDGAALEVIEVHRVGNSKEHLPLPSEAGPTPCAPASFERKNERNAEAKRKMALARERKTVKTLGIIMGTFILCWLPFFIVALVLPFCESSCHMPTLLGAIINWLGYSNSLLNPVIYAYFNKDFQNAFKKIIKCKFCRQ

“β-arrestin-2-EA (from UniProt P32121 1-409) (natural protein)” came in with an Emax of recruitment with ST171, elevated GRK2 (% of serotonin) of 15%; an Emax of recruitment with ST171, native GRK2 (% of serotonin) below 5%; an Emax of recruitment with befiradol, elevated GRK2 (% of serotonin) of 96%; an Emax of recruitment with befiradol, native GRK2 (% of serotonin) of 67%.

For the origin of these results see article doi:10.1101/2023.09.11.557127.
